# The RNAGym collection of RNA variant scans (doi:10.1073/pnas.2313332121)
# B1: TPR t1 (parent)
# chain: GACCAAUCUGCCCUCAGAGCUCGAGAACAUCUUCGGAUGCAGAGGAGGCAGGCUUCGGUGGCGCGAUAGCGCCAACGUCCUCAACCUCCAAUGCAUCCCACCACAUGAUGAUGCCUGAAGAGCCUUGGUUUUUUG
# Variants of: B1
# Experiment: polymerase ribozyme fitness, log enrichment relative to wild type (log ratio); higher = more active; in vitro selection for triplet polymerase activity
# Outline: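 Each subunit of a heterodimeric triplet polymerase ribozyme was represented by a PCR-built, transcribed mutant library that underwent triplicate single-round in vitro selection with frozen incubation at −7 °C. Extended constructs were recovered by gel excision, streptavidin-bead capture and RT-PCR, and Illumina sequencing of input and output libraries kept genotypes with ≥10 input reads and ≥1 read per output. Fitness is the logarithm of genotype enrichment relative to wild-type enrichment, from inverse-variance-weighted replicate averages, with a logarithm base of 2.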
row,Variant,polymerase ribozyme fitness (log ratio)
1,A16G A91U G113U,-2.28
2,G65U C72A,-5.48
3,A27C A111U A118U G120A,-5.36
4,C22G C114U,-3.43
5,C11G C40A C99U,-4.65
6,A5U C13G C89U U92A G120A,-2.77
7,U9G G51C C56G C80G A119U,-0.301
8,C94A U112G,-1.48
9,G35C G47A C56U A111G,-5.32
10,G17C A18G G42U C80U U112C,-0.371
11,C22U C40U G57U,-5.18
12,C11G A26U,-1.77
13,C88A G113A,-1.6
14,C8A C70U,-0.452
15,C70U A121G,-0.18
16,C62U U78C U96G U129C,-0.314
17,C49U A91U C115A,-2.58
18,A68C C115G C124U,-6.57
19,C70G G122U,-2.27
20,C13U A26U C40U,-2.81
21,A18C A74U,-4.85

row,Variant,polymerase ribozyme fitness (log ratio)
1,C79U G120A,0.635
2,C11G A37U C72G A111C U129A U132C,-0.79
3,C49A C86A,-2.07
4,U54A C82U,-0.0762
5,A50C G61C,-3.35
6,C15G C70G U132C,-6.73
7,C114G C123A,-1.74
8,A2U G52A C56A C82A A91G A121C,-2.84
9,A103C,-5.01
10,G10A A74U,-0.813
11,C11U C28U,-1.61
12,C31U G48A,-5.2
13,C101A U106C U133A,-0.867
14,G39C U126A,-2.89
15,G93A U132C,-0.827
16,C40U C56G C88G G93A,-2.89
17,G10C A66U C97U G120U C123U,0.489
18,C62A U81C C82A C98U,-4.18
19,A18U G36A,-3.63
20,C89A U92G U116G,-5.83
21,C13U C22G A41U C72U U78G U81C G122A,-4.05

row,Variant,polymerase ribozyme fitness (log ratio)
1,C13U C85A A91C C104A G120C,-3.62
2,A27U A37C,-2.87
3,A26U C88A A119U,-4.48
4,C40A C88U,-0.447
5,U78A C94G A118U G120C U132A,-0.124
6,C79A C88A,-1.22
7,A46G C56U G110U U116A,-2.84
8,G77C C86U A90C U125A,-1.83
9,U9G G61U C70U C82U C115U C123A,-3.33
10,C28G C40U C53U C56G A91C C115U U129A,-5.15
11,A26U C124A,-0.634
12,U21A A41U C70U A95U,-4.21
13,C4U G48U C56G U78A C98U U112G G135A,-4.14
14,G25A A41U,-5.8
15,A6C U9A C11G A74G,-0.26
16,G60A U130C,-0.0253
17,G60A A105C C115U,-5.65
18,U9C C94A A100C G127C G135U,-3
19,G51A G60A C80A A95G A111G,-4.57
20,G48C C70U C85U G107U,-6.63
21,A16U C64U U87A U112A A118G,-2.35

row,Variant,polymerase ribozyme fitness (log ratio)
1,A41U A84C,-1.99
2,C4U C12A A66C C70A,-5.72
3,A16G C98U,-3.02
4,G48U A95U G117U,-3.3
5,C22G A37U A41C C53U,-3.91
6,C8U G58C U59A G60A,-0.843
7,C72U C94G U132A,-1.02
8,C8G U81C,0.586
9,C62U C97G,-4.18
10,C79U A90C G93A,-2.09
11,C85G C88A C101U C124U,-0.871
12,G42U U78A U81A U112A,-3.13
13,C73A C88A G117U,-4.07
14,C8G A95G,0.646
15,U7G A68U,-6.53
16,C11A G58C,-2.25
17,G60U G128U,-2.12
18,C3A U38G A103C A118G C123G,-6.41
19,C3G U14A C20A G42U G61U G117A U131G G135C,-3.96
20,U32C C72A,0.0616
21,C3G A5G U112C,-0.649
